Paper PMC5078997, “Diversity-oriented synthetic strategy for developing a chemical modulator of protein–protein interaction” (Nature Communications, 2016)

Biological target: T1, His-tagged human leucyl-tRNA synthetase (LRS) (human, UniProt Q9P2J5 1-1176)
T1 construct: leucyl-tRNA synthetase (LRS), human; also called His-LRS; human LRS; source: laboratory stocks; purified
Test: ELISA; His-tagged human LRS coated on the plate (0.5 ng/ul in 100 mM carbonate buffer, pH 9.6, overnight at 4 °C), blocked with 5% BSA in PBS; GST-tagged human RagD added together with each compound for 3 h; detected with anti-GST and HRP-conjugated secondary antibody, TMB, absorbance at 450 nm
Details: both partners purified

T1 sequence (Q9P2J5 whole entry): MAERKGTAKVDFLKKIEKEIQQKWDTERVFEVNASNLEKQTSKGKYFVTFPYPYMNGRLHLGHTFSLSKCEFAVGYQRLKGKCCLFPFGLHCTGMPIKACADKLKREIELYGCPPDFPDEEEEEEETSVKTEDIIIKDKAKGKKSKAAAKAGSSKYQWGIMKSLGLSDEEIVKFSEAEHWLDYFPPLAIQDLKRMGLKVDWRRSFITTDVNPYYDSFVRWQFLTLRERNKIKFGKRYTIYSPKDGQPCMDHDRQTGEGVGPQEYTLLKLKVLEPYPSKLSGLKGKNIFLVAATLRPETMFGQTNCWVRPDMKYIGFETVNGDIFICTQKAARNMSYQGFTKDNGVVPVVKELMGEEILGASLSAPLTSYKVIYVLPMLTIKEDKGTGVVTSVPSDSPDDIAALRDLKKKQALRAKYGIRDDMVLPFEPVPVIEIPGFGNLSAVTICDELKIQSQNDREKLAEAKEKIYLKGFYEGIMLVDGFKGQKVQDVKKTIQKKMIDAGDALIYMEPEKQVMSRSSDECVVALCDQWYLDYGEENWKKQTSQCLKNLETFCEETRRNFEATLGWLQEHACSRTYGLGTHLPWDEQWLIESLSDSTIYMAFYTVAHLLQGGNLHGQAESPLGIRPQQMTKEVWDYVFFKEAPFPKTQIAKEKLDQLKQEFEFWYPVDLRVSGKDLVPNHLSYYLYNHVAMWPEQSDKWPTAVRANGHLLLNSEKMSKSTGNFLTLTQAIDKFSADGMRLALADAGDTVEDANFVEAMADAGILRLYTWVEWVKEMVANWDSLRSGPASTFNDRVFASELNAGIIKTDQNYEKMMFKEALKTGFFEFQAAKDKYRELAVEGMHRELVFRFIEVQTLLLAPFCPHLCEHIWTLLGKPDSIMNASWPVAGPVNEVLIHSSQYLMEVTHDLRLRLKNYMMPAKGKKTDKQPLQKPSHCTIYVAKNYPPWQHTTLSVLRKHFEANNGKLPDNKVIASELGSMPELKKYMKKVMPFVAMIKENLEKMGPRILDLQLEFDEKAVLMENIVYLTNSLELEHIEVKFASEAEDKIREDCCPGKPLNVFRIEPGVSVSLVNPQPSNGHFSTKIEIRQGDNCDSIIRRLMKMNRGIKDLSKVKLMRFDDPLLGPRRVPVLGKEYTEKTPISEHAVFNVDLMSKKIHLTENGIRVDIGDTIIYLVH

binding result: binds
B1: GST (glutathione-S-transferase)-tagged human Ras-related GTP-binding protein D (RagD) (natural protein, UniProt Q9NQL2 1-400, looked up)
chain: MSQVLGKPQPQDEDDAEEEEEEDELVGLADYGDGPDSSDADPDSGTEEGVLDFSDPFSTEVKPRILLMGLRRSGKSSIQKVVFHKMSPNETLFLESTNKICREDVSNSSFVNFQIWDFPGQIDFFDPTFDYEMIFRGTGALIFVIDSQDDYMEALARLHLTVTRAYKVNTDINFEVFIHKVDGLSDDHKIETQRDIHQRANDDLADAGLEKIHLSFYLTSIYDHSIFEAFSKVVQKLIPQLPTLENLLNIFISNSGIEKAFLFDVVSKIYIATDSTPVDMQTYELCCDMIDVVIDISCIYGLKEDGAGTPYDKESTAIIKLNNTTVLYLKEVTKFLALVCFVREESFERKGLIDYNFHCFRKAIHEVFEVRMKVVKSRKVQNRLQKKKRATPNGTPRVLL
notes: also called GST-tagged RagD; source: laboratory stocks; purified
